# ± gives the uncertainty stated by the source.
# B1: Histone-lysine N-methyltransferase 2A, residues 1148 to 1194; numbered along this chain, Q03164 (parent)
# chain: KGRRSRRCGQCPGCQVPEDCGVCTNCLDKPKFGGRNIKKQCCKMRKC
# B2: RNA-binding E3 ubiquitin-protein ligase MEX3C, residues 325 to 391; numbered along this chain, Q5U5Q3 (parent)
# chain: GQTTVQVRVPYRVVGLVVGPKGATIKRIQQQTHTYIVTPSRDKEPVFEVTGMPENVDRAREEIEMHI
# Variants of: B1
# Test: abundance fitness (aPCA) (normalised: wild type 0, dead -1); higher = more abundant; growth selection in yeast, the domain comes from the species named
# Details: Homo sapiens
row,Variant,abundance fitness
1,KGRRSRRCGQCPGCQVPEDCGVCTNCLDKPKFGGRNIKKQCCKMRFC [K46F],-0.21 ± 0.21
2,KGRRSRRCGQCPGCQVPEDCGVCTNCLDKPKFGGRNIKKQCCKMRAC [K46A],0.206 ± 0.12
3,KGRRSRRCGQCPGCQVPEDCGVCTNCLDKPKFGGRNIKKQCCKMRPC [K46P],-0.341 ± 0.15
4,KGRRSRRCGQCPGCQVPEDCGVCTNCLDKPKFGGRNIKKQCCKMRNC [K46N],-0.728 ± 0.3
5,KGRRSRRCGQCPGCQVPEDCGVCTNCLDKPKFGGRNIKKQCCKMRCC [K46C],-0.17 ± 0.22
6,KGRRSRRCGQCPGCQVPEDCGVCTNCLDKPKFGGRNIKKQCCKMRSC [K46S],-0.12 ± 0.11
7,KGRRSRRCGQCPGCQVPEDCGVCTNCLDKPKFGGRNIKKQCCKMRQC [K46Q],0.153 ± 0.12
8,KGRRSRRCGQCPGCQVPEDCGVCTNCLDKPKFGGRNIKKQCCKMREC [K46E],0.105 ± 0.18
9,KGRRSRRCGQCPGCQVPEDCGVCTNCLDKPKFGGRNIKKQCCKMRRC [K46R],-0.205 ± 0.09
10,KGRRSRRCGQCPGCQVPEDCGVCTNCLDKPKFGGRNIKKQCCKMRIC [K46I],0.356 ± 0.19
11,KGRRSRRCGQCPGCQVPEDCGVCTNCLDKPKFGGRNIKKQCCKMRDC [K46D],0.231 ± 0.21

# Variants of: B2
# Test: as above
# Details: Homo sapiens
row,Variant,abundance fitness
1,GWTTVQVRVPYRVVGLVVGPKGATIKRIQQQTHTYIVTPSRDKEPVFEVTGMPENVDRAREEIEMHI [Q2W],-0.302 ± 0.081
2,GETTVQVRVPYRVVGLVVGPKGATIKRIQQQTHTYIVTPSRDKEPVFEVTGMPENVDRAREEIEMHI [Q2E],-0.022 ± 0.089
3,GNTTVQVRVPYRVVGLVVGPKGATIKRIQQQTHTYIVTPSRDKEPVFEVTGMPENVDRAREEIEMHI [Q2N],-0.061 ± 0.092
4,GVTTVQVRVPYRVVGLVVGPKGATIKRIQQQTHTYIVTPSRDKEPVFEVTGMPENVDRAREEIEMHI [Q2V],-0.069 ± 0.078
5,GLTTVQVRVPYRVVGLVVGPKGATIKRIQQQTHTYIVTPSRDKEPVFEVTGMPENVDRAREEIEMHI [Q2L],0.017 ± 0.06
6,GMTTVQVRVPYRVVGLVVGPKGATIKRIQQQTHTYIVTPSRDKEPVFEVTGMPENVDRAREEIEMHI [Q2M],-0.001 ± 0.13
7,GRTTVQVRVPYRVVGLVVGPKGATIKRIQQQTHTYIVTPSRDKEPVFEVTGMPENVDRAREEIEMHI [Q2R],-0.208 ± 0.053
8,GPTTVQVRVPYRVVGLVVGPKGATIKRIQQQTHTYIVTPSRDKEPVFEVTGMPENVDRAREEIEMHI [Q2P],-0.181 ± 0.082
9,GDTTVQVRVPYRVVGLVVGPKGATIKRIQQQTHTYIVTPSRDKEPVFEVTGMPENVDRAREEIEMHI [Q2D],-0.155 ± 0.18
10,GFTTVQVRVPYRVVGLVVGPKGATIKRIQQQTHTYIVTPSRDKEPVFEVTGMPENVDRAREEIEMHI [Q2F],0.057 ± 0.088
11,GYTTVQVRVPYRVVGLVVGPKGATIKRIQQQTHTYIVTPSRDKEPVFEVTGMPENVDRAREEIEMHI [Q2Y],-0.047 ± 0.12
12,GHTTVQVRVPYRVVGLVVGPKGATIKRIQQQTHTYIVTPSRDKEPVFEVTGMPENVDRAREEIEMHI [Q2H],0.017 ± 0.12
13,GCTTVQVRVPYRVVGLVVGPKGATIKRIQQQTHTYIVTPSRDKEPVFEVTGMPENVDRAREEIEMHI [Q2C],-0.148 ± 0.093
14,GITTVQVRVPYRVVGLVVGPKGATIKRIQQQTHTYIVTPSRDKEPVFEVTGMPENVDRAREEIEMHI [Q2I],-0.174 ± 0.18
15,GATTVQVRVPYRVVGLVVGPKGATIKRIQQQTHTYIVTPSRDKEPVFEVTGMPENVDRAREEIEMHI [Q2A],-0.409 ± 0.1
16,GSTTVQVRVPYRVVGLVVGPKGATIKRIQQQTHTYIVTPSRDKEPVFEVTGMPENVDRAREEIEMHI [Q2S],-0.356 ± 0.098
17,GGTTVQVRVPYRVVGLVVGPKGATIKRIQQQTHTYIVTPSRDKEPVFEVTGMPENVDRAREEIEMHI [Q2G],-0.403 ± 0.073
18,GKTTVQVRVPYRVVGLVVGPKGATIKRIQQQTHTYIVTPSRDKEPVFEVTGMPENVDRAREEIEMHI [Q2K],0.145 ± 0.089
19,GQHTVQVRVPYRVVGLVVGPKGATIKRIQQQTHTYIVTPSRDKEPVFEVTGMPENVDRAREEIEMHI [T3H],-0.252 ± 0.11

row,Variant,abundance fitness
1,GQDTVQVRVPYRVVGLVVGPKGATIKRIQQQTHTYIVTPSRDKEPVFEVTGMPENVDRAREEIEMHI [T3D],-0.45 ± 0.1
2,GQVTVQVRVPYRVVGLVVGPKGATIKRIQQQTHTYIVTPSRDKEPVFEVTGMPENVDRAREEIEMHI [T3V],0.008 ± 0.052
3,GQITVQVRVPYRVVGLVVGPKGATIKRIQQQTHTYIVTPSRDKEPVFEVTGMPENVDRAREEIEMHI [T3I],0.306 ± 0.094
4,GQNTVQVRVPYRVVGLVVGPKGATIKRIQQQTHTYIVTPSRDKEPVFEVTGMPENVDRAREEIEMHI [T3N],-0.672 ± 0.16
5,GQMTVQVRVPYRVVGLVVGPKGATIKRIQQQTHTYIVTPSRDKEPVFEVTGMPENVDRAREEIEMHI [T3M],-0.556 ± 0.097
6,GQPTVQVRVPYRVVGLVVGPKGATIKRIQQQTHTYIVTPSRDKEPVFEVTGMPENVDRAREEIEMHI [T3P],-0.787 ± 0.24
7,GQATVQVRVPYRVVGLVVGPKGATIKRIQQQTHTYIVTPSRDKEPVFEVTGMPENVDRAREEIEMHI [T3A],-0.799 ± 0.11
8,GQETVQVRVPYRVVGLVVGPKGATIKRIQQQTHTYIVTPSRDKEPVFEVTGMPENVDRAREEIEMHI [T3E],-0.385 ± 0.079
9,GQQTVQVRVPYRVVGLVVGPKGATIKRIQQQTHTYIVTPSRDKEPVFEVTGMPENVDRAREEIEMHI [T3Q],-0.258 ± 0.1
10,GQCTVQVRVPYRVVGLVVGPKGATIKRIQQQTHTYIVTPSRDKEPVFEVTGMPENVDRAREEIEMHI [T3C],-0.256 ± 0.11
11,GQSTVQVRVPYRVVGLVVGPKGATIKRIQQQTHTYIVTPSRDKEPVFEVTGMPENVDRAREEIEMHI [T3S],-0.309 ± 0.066
12,GQLTVQVRVPYRVVGLVVGPKGATIKRIQQQTHTYIVTPSRDKEPVFEVTGMPENVDRAREEIEMHI [T3L],-0.163 ± 0.06
13,GQGTVQVRVPYRVVGLVVGPKGATIKRIQQQTHTYIVTPSRDKEPVFEVTGMPENVDRAREEIEMHI [T3G],-0.519 ± 0.065
14,AQTTVQVRVPYRVVGLVVGPKGATIKRIQQQTHTYIVTPSRDKEPVFEVTGMPENVDRAREEIEMHI [G1A],-0.27 ± 0.44
15,VQTTVQVRVPYRVVGLVVGPKGATIKRIQQQTHTYIVTPSRDKEPVFEVTGMPENVDRAREEIEMHI [G1V],-0.283 ± 0.3
16,RQTTVQVRVPYRVVGLVVGPKGATIKRIQQQTHTYIVTPSRDKEPVFEVTGMPENVDRAREEIEMHI [G1R],-0.022 ± 0.31
17,SQTTVQVRVPYRVVGLVVGPKGATIKRIQQQTHTYIVTPSRDKEPVFEVTGMPENVDRAREEIEMHI [G1S],-0.094 ± 0.085
18,DQTTVQVRVPYRVVGLVVGPKGATIKRIQQQTHTYIVTPSRDKEPVFEVTGMPENVDRAREEIEMHI [G1D],-0.136 ± 0.066

# — the Human Domainome abundance scans (Beltran et al. 2025)
